Source: publication PMC4798592, “A Surfactant-Induced Functional Modulation of a Global Virulence Regulator from Staphylococcus aureus” (PLoS ONE, 2016)

Biological target: the molecule itself
Test: cross-linking; glutaraldehyde-mediated cross-linking of rSarA (10 uM) in buffer B [20 mM phosphate buffer (pH 8.0), 100 mM NaCl, 5% glycerol] or buffer C (buffer B with 0.7 mM TX-100); analysed by SDS-13.5% PAGE

B1: recombinant S. aureus SarA (rSarA) (natural protein)
chain: MAITKINDCFELLSMVTYADKLKSLIKKEFSISFEEFAVLTYISENKEKEYYLKDIINHLNYKQPQVVKAVKILSQEDYFDKKRNEHDERTVLILVNAQQRKKIESLLSRVNKRITEANNEIEL
notes: source: purified as described [8]
stoichiometry N: 2
